According to publication PMC5760045, “The centrosomin CM2 domain is a multi-functional binding domain with distinct cell cycle roles” (PLoS ONE, 2018):
Blank lines part the entries; values can stand above or below the molecule they belong to.

Assays:
[1] = biological target: centrosomin CM2 aa1090-1148 (monomeric CM2) (Drosophila melanogaster) (UniProt P54623); experiment: NMR titration; 2D [15N,1H]-HSQC of 100μM 15N labeled monomeric CM2 with 18μM CaM; 2mM EGTA added in place of 2mM CaCl2; 300K; 20mM PIPES pH 6.8, 140mM NaCl; apparent affinity
[2] = biological target: CM2 Δ1130–1148 (Drosophila melanogaster) (UniProt P54623); experiment: SEC-MALS; KW-802.5 size exclusion column with inline MALS and refractive index detectors; 50mM HEPES pH 7.0, 200mM NaCl, 1mM DTT; dimer constructs also at submicromolar concentrations (1μM and 9μM for aa1074-1148)
[3] = biological target: the molecule itself; experiment: as above
[4] = biological target: T1, GB1-CNNLZ (CNN aa490-567 fused to the GB1 solubility tag) (Drosophila melanogaster, UniProt P54623-2 490-567); experiment: NMR titration; 2D [15N,1H]-HSQC of 100μM 15N labeled CM2 with unlabeled partner added; 300K; 20mM PIPES pH 6.8, 140mM NaCl, 0.01% NaN3, 5% D2O, 2mM CaCl2; 800 MHz; settings: both partners purified
T1 construct: centrosomin (CNN), Drosophila melanogaster, residues 490-567 with the leucine zipper, the same fragment as in the crystal structure 5MWE; The introduction gives aa490-544 for CNNLZ of Feng et al; the results give aa490-567 for the fragment used here; also called GB1-CnnMD; source: E. coli, purified (NiNTA, size exclusion)
T1 sequence (looked up): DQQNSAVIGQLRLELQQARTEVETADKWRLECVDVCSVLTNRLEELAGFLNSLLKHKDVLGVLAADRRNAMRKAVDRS

Molecule: CM2 Δ1130–1148 (from UniProt P54623-2 1-1129) (domain or fragment)
stoichiometry N [2]: 2

B1: centrosomin CM2 aa1064-1148 (longer dimeric CM2) (domain or fragment, Drosophila melanogaster, UniProt P54623-2 1064-1148, looked up)
chain: ESTSPDSKSNVATGAATVHDCAKVDLENAELRRKLIRTKRAFEDTYEKLRMANKAKAQVEKDIKNQILKTHNVLRNVRSNMENEL
notes: centrosomin (CNN), Drosophila melanogaster, residues 1064-1148, from cDNA LD19135; source: E. coli, purified (NiNTA, cation exchange, size exclusion)
stoichiometry N [3]: 2

B3: centrosomin CM2 aa1074-1148 (minimal dimeric CM2) (domain or fragment, Drosophila melanogaster, UniProt P54623-2 1074-1148, looked up)
chain: VATGAATVHDCAKVDLENAELRRKLIRTKRAFEDTYEKLRMANKAKAQVEKDIKNQILKTHNVLRNVRSNMENEL
notes: centrosomin (CNN), Drosophila melanogaster, residues 1074-1148, from cDNA LD19135; 15N-labelled in the NMR experiments; also called CM2 dimer; minimal dimer construct; source: E. coli, purified (NiNTA, cation exchange; non-labeled protein also size exclusion)
stoichiometry N [3]: 2

Continued, values first:

reduction of the apparent affinity without calcium (2mM EGTA) against 2mM CaCl2 [1]: 50 to 70%
Molecule: calmodulin (from UniProt P62152 1-149) (natural protein)

binding result [4]: binds
B2: centrosomin CM2 aa1090-1148 (monomeric CM2) (domain or fragment, Drosophila melanogaster, UniProt P54623-2 1090-1148, looked up)
chain: ENAELRRKLIRTKRAFEDTYEKLRMANKAKAQVEKDIKNQILKTHNVLRNVRSNMENEL
notes: centrosomin (CNN), Drosophila melanogaster, residues 1090-1148 (start of the predicted coiled coil to the C-terminus), from cDNA LD19135; 15N-labelled (or 13C/15N) in the NMR experiments; also called CM2 monomer; truncated CM2; source: E. coli, purified (NiNTA, cation exchange; non-labeled protein also size exclusion)
